This note sets out measurements from patent EP2649983A1 (Lipotec, S.A., dated 2013).

The target of this assay is SNARE complex in cells of a human neuroblastoma cell line (human, UniProt P60880 1-206). The assay can be described thus: cell-based or functional assay.
Sequence of SNARE complex in cells of a human neuroblastoma cell line (P60880 whole entry, one chain of several): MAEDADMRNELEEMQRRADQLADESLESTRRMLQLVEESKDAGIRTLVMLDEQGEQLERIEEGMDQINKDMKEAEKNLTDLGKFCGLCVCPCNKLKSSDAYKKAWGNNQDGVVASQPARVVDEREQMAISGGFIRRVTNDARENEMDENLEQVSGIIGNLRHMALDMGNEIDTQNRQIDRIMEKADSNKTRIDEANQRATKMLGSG

B1: Ac-SEQ ID NO:14-NH2 (peptide)
peptide: Ac-EDLKRWM-NH2
In the case of B1, the “% RELEASED NO… (Average), dose 10 µM” value stood at 85%; the “% RELEASED NO… (Average), dose 100 µM” value worked out at 86%; the “% RELEASED NO… (Average), dose 1000 µM” value is 45.8%.

B2: Ac-SEQ ID NO:1-NH2 (peptide)
peptide: Ac-EHLKQWM-NH2
For the molecule B2, the “% RELEASED NO… (Average), dose 1 µM” value stood at 96.1%; the “% RELEASED NO… (Average), dose 10 µM” value stood at 93.1%; the “% RELEASED NO… (Average), dose 100 µM” value turned out to be 79.6%; the “% RELEASED NO… (Average), dose 500 µM” value came to 49.1%. In addition, the “% RELEASED NO… (Average), dose 1000 µM” value was 42.5%.

B3: Ac-SEQ ID NO:24-NH2 (peptide)
peptide: Ac-DHFQQRM-NH2
For B3, the “% RELEASED NO… (Average), dose 1 µM” value was 90.6%; the “% RELEASED NO… (Average), dose 10 µM” value was determined as 97.1%; the “% RELEASED NO… (Average), dose 100 µM” value came out at 89%; the “% RELEASED NO… (Average), dose 500 µM” value was determined as 78.1%. Moreover, the “% RELEASED NO… (Average), dose 1000 µM” value stood at 67.9%.

B4: Ac-SEQ ID NO:25-NH2 (peptide)
peptide: Ac-DHFLDWM-NH2
Regarding B4, the “% RELEASED NO… (Average), dose 1 µM” value was 99.6%; the “% RELEASED NO… (Average), dose 10 µM” value worked out at 94.5%; the “% RELEASED NO… (Average), dose 100 µM” value worked out at 74.8%; the “% RELEASED NO… (Average), dose 500 µM” value is 48.1%. Besides, the “% RELEASED NO… (Average), dose 1000 µM” value turned out to be 41%.
